# ± gives the standard deviation of the averaged measurements.
# Tested on: Saccharomyces cerevisiae
# Assay: protein stability index of tFT-peptide fusion (C-terminal peptide) (PSI (0-1 scale)); higher = more stable (slower turnover)
# Conditions: genetic background: wild type; temperature: 30 C
# Experimental: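 Multiplexed protein stability (MPS) profiling in S. cerevisiae. Random 12-aa peptides (tFT-X12 library) are fused to the C-terminus of a sfGFP-mCherry tandem fluorescent timer, after mCherry and a GGGS linker. Cells are FACS-sorted into 8 mCherry/sfGFP bins and deep-sequenced. The protein stability index (PSI) is the read-weighted bin average, scaled from 0 (unstable) to 1 (stable). Only peptides with >10 reads are reported; cells were grown at 30 °C in SC-His with glucose.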
# 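Note: PSI is a weighted mean of sequencing reads over stability bins, variants kept only with over 10 reads, mCherry proximal and sfGFP distal, peptide attached via GGGS linker.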
row,Sequence,protein stability index
1,PPLLLSPCPSLP,0.7229 ± 0.0034
2,PLECHTGVLGRL,0.709 ± 0.0086
3,GVPPFAPPPPPH,0.703 ± 0.015
4,PPPHPLLRPSPS,0.737 ± 0.011
5,GRTYWDCYFPRP,0.778 ± 0.061
6,GQYEPEWKRLYC,0.64 ± 0.011
7,AGCVVGWGAWVL,0.7035 ± 0.0064
8,PCMLSEATQQAH,0.668 ± 0.049
9,SKRRLTGYRKTK,0.669 ± 0.052
10,FPLHPLLTSISL,0.68 ± 0.032
11,LGGGEGKRVCEG,0.668 ± 0.017
12,SGRSQHFVSFLR,0.664 ± 0.018
13,YVRLSTLCGSAY,0.58 ± 0.036
14,LVRPRFSPPPTP,0.6882 ± 0.0057
15,FSNFVYFFFRSS,0.666 ± 0.12
16,CVGSVRYRIRGS,0.63 ± 0.06
17,QTNYSNQYKEKY,0.713 ± 0.11
18,VWFGLLTTVNID,0.5657 ± 0.0048
19,PPRPPPAPPPLP,0.642 ± 0.0021
20,NFRILIKKRGDE,0.643 ± 0.071
21,GEGPTGAKQDYV,0.6239 ± 0.0023
22,AGRVRERMRVYG,0.639 ± 0.01
23,LTNGQRSLCLCS,0.6537 ± 0.0048
24,NTPHSRSLRSNH,0.695 ± 0.017
25,GRGVFPRRPYWV,0.724 ± 0.0086

row,Sequence,protein stability index
1,LERTTSNKYEER,0.7234 ± 0.0061
2,LPPHAPIPRWKP,0.776 ± 0.17
3,PSSRPPMSPIDT,0.694 ± 0.018
4,PLFPRPFPPPRS,0.717 ± 0.0091
5,GPPPRSPAFRSL,0.695 ± 0.092
6,KRRAERKKRSKG,0.6731 ± 0.006
7,RSQICWFFFQCI,0.53 ± 0.036
8,KKKKKRKKEEKH,0.721 ± 0.032
9,PLLPILTSPPRR,0.71 ± 0.029
10,VVCFLVHGWGGW,0.638 ± 0.048
11,DRPPYTPHPPYP,0.7521 ± 0.0073
12,ISVRAVDFGIAG,0.68 ± 0.033
13,WGMVFQVFRRRN,0.582 ± 0.018
14,RLPRSPLHPSVP,0.738 ± 0.016
15,NLINPCRRPPVP,0.648 ± 0.088
16,CVAAASPFRLLY,0.654 ± 0.04
17,VPPPSPTLSPHP,0.656 ± 0.28
18,RGGGRRAWVWGG,0.675 ± 0.036
19,GRRFWFSNHYNC,0.628 ± 0.091
20,KKKKKKKNKKKT,0.7142 ± 0.00095
21,CVFGSHCRVLVV,0.556 ± 0.028
22,RRRVTVYAPVDS,0.713 ± 0.015
23,DYSTLFVSVADP,0.667 ± 0.0069
24,GFGSTTTRLALV,0.662 ± 0.13
25,RCLSVLGLFVGW,0.634 ± 0.033

row,Sequence,protein stability index
1,GAVWLLFCGGVG,0.555 ± 0.024
2,PPPLLPPRAPSP,0.6294 ± 0.0031
3,SSNLVDTCSPIG,0.778 ± 0.081
4,CSSTGVPGRRHE,0.709 ± 0.013
5,DPAPSPTGMCTR,0.688 ± 0.016
6,ATVARNTDTSSP,0.679 ± 0.017
7,TYSPPSPTPPAR,0.656 ± 0.055
8,HPAPVPSAPSDA,0.678 ± 0.054
9,VTKNRHRQTETQ,0.658 ± 0.036
10,PPPHPPPPAPPY,0.735 ± 0.019
11,VGKRGQRRVARL,0.692 ± 0.021
12,GRGGAGFRGGIE,0.6707 ± 0.0044
13,KRKKIQNRGKKK,0.718 ± 0.0086
14,GGNDIIQNRKGK,0.674 ± 0.039
15,YQCVQNNKGRSR,0.67 ± 0.024
16,PNPPNSSNPPSP,0.7013 ± 0.0031
17,TCRYSSIVDKGS,0.612 ± 0.008
18,SPPHPPPRPPLL,0.733 ± 0.041
19,PPAAPSPPPPRP,0.719 ± 0.012
20,HPSPTAPPSASN,0.66 ± 0.022
21,PSPWPPPPSDPP,0.552 ± 0.12
22,PPPLPPPSLLPT,0.762 ± 0.043
23,VFGSGLRATGAV,0.635 ± 0.086
24,SSPQASILIRDF,0.778 ± 0.1
25,FGTVIEVVCGVM,0.5277 ± 0.0014

row,Sequence,protein stability index
1,AGREREVLFNLH,0.679 ± 0.067
2,PVLPPRSFPPSS,0.697 ± 0.014
3,ACLPRARLRFHV,0.669 ± 0.027
4,LPLPHAPPPPPT,0.7233 ± 0.0026
5,RRESTRSRWYEG,0.762 ± 0.14
6,VLGVFFGSVEGC,0.68 ± 0.05
7,GITWSYNKSISH,0.722 ± 0.048
8,ALVLYVSMSRGY,0.677 ± 0.054
9,RGGSGGRKCLGV,0.687 ± 0.0094
10,PPGPPIAPLFPP,0.657 ± 0.0071
11,RQSSPPPRIAPT,0.6783 ± 0.0057
12,FQLFLPPFRLPP,0.801 ± 0.18
13,KNKKKNSRKKQQ,0.702 ± 0.0083
14,PRYCQIKIISHK,0.554 ± 0.14
15,YRPGGDRMTGFV,0.713 ± 0.065
16,DLQACGATSKAS,0.683 ± 0.059
17,PLCFSLFFPFRP,0.657 ± 0.0099
18,PHPGQSAPPRPP,0.654 ± 0.038
19,CWVHGRWVSGAS,0.813 ± 0.051
20,PSPPPPSALLSP,0.727 ± 0.066
21,RLHFSSPLLHPP,0.601 ± 0.041
22,PFSVDLPWPPWE,0.806 ± 0.053
23,TKIKKKKNKKQE,0.731 ± 0.0013
24,FSFQTLPTPTSP,0.655 ± 0.06
25,FVLSVDLSVEGS,0.585 ± 0.037

row,Sequence,protein stability index
1,THVPPSPIPPIM,0.675 ± 0.0099
2,GRKAEVRVLHFR,0.6447 ± 0.0055
3,VVSRLCCTRIRQ,0.701 ± 0.04
4,VPPPTAPVPPRP,0.749 ± 0.096
5,FSSAINSFAFQP,0.683 ± 0.026
6,VLFATLHVMALK,0.55 ± 0.026
7,GEAWWLRGGGER,0.757 ± 0.03
8,PAHRRLLPWPPA,0.71 ± 0.14
9,PPPSPGSSAPPP,0.676 ± 0.037
10,QQGKWHTRRKKY,0.659 ± 0.07
11,LVSPPSPPLPPP,0.728 ± 0.12
12,PSSSSPPSLTPA,0.672 ± 0.097
13,SRISQSMRFPIK,0.691 ± 0.027
14,EEGGEVREGKQA,0.702 ± 0.019
15,CRMEARHSVLKS,0.554 ± 0.0087
16,RERVQYICYERR,0.695 ± 0.086
17,PSPPPGPPPLPP,0.613 ± 0.011
18,GQSQSGIFRTIF,0.72 ± 0.024
19,YQLRRGDSSLTE,0.677 ± 0.085
20,RFRGYWSWGMTL,0.777 ± 0.13
21,PLLRPTRLLPET,0.699 ± 0.093
22,GGNGIVPVWMNF,0.695 ± 0.041
23,LAPLTLLSPLPR,0.677 ± 0.034
24,ERWSHNKEDDRN,0.6577 ± 0.0048
25,FILTSLPSLCFP,0.696 ± 0.04

row,Sequence,protein stability index
1,TPQLSYYKGNNL,0.639 ± 0.013
2,SAIAVDSPLGRG,0.653 ± 0.023
3,LPSSAVDLYTRP,0.6468 ± 0.0059
4,WFFSNLRRDCGG,0.735 ± 0.016
5,GLDSGVAGRRGV,0.662 ± 0.0087
6,CCRDLWVWLVKW,0.619 ± 0.071
7,VVMLSLVALGRV,0.523 ± 0.026
8,SKQGNKADGCAK,0.603 ± 0.054
9,ATDAWNKNKESS,0.542 ± 0.04
10,PLPLPPLPPPLP,0.656 ± 0.021
11,CKKRSRCGNTIM,0.755 ± 0.15
12,RGVALWALYGAG,0.76502 ± 0.00052
13,ICLGCFEEYEGV,0.812 ± 0.077
14,GRVRGRGEGPVA,0.675 ± 0.049
15,PPLTPLPLGSPP,0.717 ± 0.027
16,PSLPPLPRSPPP,0.714 ± 0.04
17,DRSRESSMSLPD,0.711 ± 0.0076
18,SLAFSVFWSIFL,0.585 ± 0.015
19,VLSLCLSVRSFV,0.562 ± 0.017
20,LKRKKKHQMKRR,0.699 ± 0.028
21,NSSADRSTNPTQ,0.649 ± 0.019
22,TSSTPNALARIP,0.71 ± 0.16
23,YKTCKEKKITNR,0.704 ± 0.014
24,FDCTSCIPFRFL,0.679 ± 0.035
25,WAIPSSPQYKRA,0.676 ± 0.031

row,Sequence,protein stability index
1,PPLPPRTPPPLS,0.704 ± 0.077
2,GGARPVWDPGFG,0.684 ± 0.0031
3,PPVLPVGLPPTP,0.684 ± 0.035
4,SVLPSVAGIKSG,0.593 ± 0.046
5,PPGPAPPHAASH,0.6421 ± 0.0029
6,VSLVYLDHLSRS,0.702 ± 0.029
7,LGGWAGLRCGGF,0.704 ± 0.026
8,LPTPSQYFFPPP,0.736 ± 0.018
9,SSPPPPPRPAPT,0.681 ± 0.15
10,PPPPPPPPRPPS,0.651 ± 0.069
11,LCDACLSLVFLW,0.629 ± 0.031
12,LPPGDPPPRGPP,0.597 ± 0.045
13,RVGLGGRPSGGW,0.64 ± 0.047
14,AVRVSRFSCGGW,0.717 ± 0.038
15,VGGVVGVGSVGV,0.775 ± 0.14
16,PPVPPLRPSCPS,0.684 ± 0.01
17,GRFGGLLRKVLG,0.678 ± 0.15
18,HSRSRAEPHHPP,0.555 ± 0.037
19,STSIRHGLHSVE,0.673 ± 0.05
20,PPPLPSIPPFVL,0.708 ± 0.094
21,QTPRYRGLFSAL,0.639 ± 0.038
22,RLNQSKSTKYSE,0.651 ± 0.012
23,TDLPTSMHETRN,0.695 ± 0.028
24,PTGSGLTLNRVL,0.7187 ± 0.0062
25,GSWGRPAGFSRR,0.651 ± 0.028

row,Sequence,protein stability index
1,FMPRPSNRLSPS,0.723 ± 0.0078
2,CCLSISSSLLDL,0.675 ± 0.13
3,EGRPGGVGEGSQ,0.671 ± 0.011
4,VRLWLSLRLGFS,0.587 ± 0.068
5,PPLPPPRRSSPP,0.705 ± 0.02
6,TRYRQKRMSITT,0.581 ± 0.014
7,LPTPTPPPALRS,0.689 ± 0.053
8,PNCAPLTAPRRR,0.7159 ± 0.0069
9,ERGGWGGGSEVG,0.684 ± 0.091
10,RAGGSANVLAGE,0.6926 ± 0.0016
11,FLYELGTTSSPR,0.73 ± 0.025
12,KQKKNKNNHRKK,0.761 ± 0.024
13,CGHAGQTPRTSR,0.718 ± 0.065
14,GTYNIGVFAPEN,0.653 ± 0.032
15,ERCVCLRGVSSG,0.708 ± 0.011
16,SSYHPPPSCLLP,0.74596 ± 0.00061
17,CYFLAMPLYFPL,0.622 ± 0.014
18,IEATHKIDRCKD,0.676 ± 0.0086
19,RGGGCNGVSVEG,0.6899 ± 0.0027
20,LRSLSLSYVALR,0.6592 ± 0.0017
21,PPLPLLPSPSPL,0.753 ± 0.086

# From the supplement of paper PMC10724198
